Measured values reported in PMC2901902 (Nature, 2010).

Biological target: human DPF3b PHD12 (tandem PHD finger) (Homo sapiens, UniProt Q92784)
Test: DPF3b PHD12 binding to modified histone peptides
Conditions: H3 peptide residues 1–20, versus H3K14ac

human DPF3b PHD12 (tandem PHD finger), sequence (Q92784 261-372): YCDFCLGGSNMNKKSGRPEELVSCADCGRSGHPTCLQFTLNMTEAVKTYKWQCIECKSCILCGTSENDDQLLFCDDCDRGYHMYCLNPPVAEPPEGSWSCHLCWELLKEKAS

reduction in affinity when H3 is not acetylated at K14: 4 fold
Substance: H3 peptide (residues 1–20): H3 peptide (residues 1–20), not acetylated at K14
